Assays:
PIV1070 = target: T1, PIV1070 (PIV1); assay: BLI, no stress
T1 construct: F113G, F114S, A466I, S473I, G134A
Description: (§1) Conformation integrity of PIV1 F protein mutants were evaluated by a thermal stress experiment. Crude cell culture supernatants were normalized based on the results of the titer quantitation and then incubated for 1 hour at room temperature and two higher temperatures. For the initial testing of PIV1 mutants, the two temperatures were 50° C. and 53° C. […] Anti-Human IgG Fc Capture (AHC) biosensors were first equilibrated in PB for before being dipped into more PB to establish the initial baseline. […] The mAb-bound biosensors were then dipped into the thermal stresses cell culture supernatants for 5 minutes.

[1] = target: T2, PIV1 F literature prefusion comparison (PIV1); assay: BLI, no stress
T2 construct: F113G, F114S, A466I, S473I (Stewart-Jones et al. 2018)
Description: as §1

PIV1069 = target: T3, PIV1069 (PIV1); assay: BLI, no stress
T3 construct: F113G, F114S, A466L, S473L, G134A
Description: as §1

PIV1068 [2] = target: T4, PIV1068 (PIV1); assay: BLI, 53C stress;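 further: binding of thermally stressed PIV1 F mutant supernatant to mAb on AHC biosensors for 5 min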
T4 construct: A466I, S473I, A480I, Q92L, G134A
Description: (§2) The OCTET HTX (Sartorius, Gottingen, Germany) instrument was used to evaluate the expression and conformational integrity for each mutant. All measurements were conducted at 30° C. temperature in 96-well black plates (Corning, Corning, NY) with a final volume of 240 μL per well at a constant agitation rate of 1000 RPM.
as §1

PIV1055 [3] = target: T5, PIV1055 (PIV1); assay: BLI, 53C stress;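 further: binding of thermally stressed PIV1 F mutant supernatant to mAb on AHC biosensors for 5 min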
T5 construct: A466L, S473L, G134A
Description: as §2, §1

PIV1059 [4] = target: T6, PIV1059 (PIV1); assay: BLI, 53C stress;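 further: binding of thermally stressed PIV1 F mutant supernatant to mAb on AHC biosensors for 5 min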
T6 construct: F113G, F114S, A466L, S473L, A480L, G134A, Q92L
Description: as §2, §1

PIV1052 [5] = target: T7, PIV1052 (PIV1); assay: BLI, 53C stress;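 further: binding of thermally stressed PIV1 F mutant supernatant to mAb on AHC biosensors for 5 min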
T7 construct: Q92C-G134C, A466V, S473V; also called PV1052
Description: as §2, §1

PIV1051 [6] = target: T8, PIV1051 (PIV1); assay: BLI, 53C stress
T8 construct: Q92C-G134C, A466V, S473V, A480V
Description: as §2, §1

PIV1066 [7] = target: T9, PIV1066 (PIV1); assay: BLI, 53C stress
T9 construct: A466I, S473I, A480L, Q92L, G134A
Description: as §2, §1

PIV1064 [8] = target: T10, PIV1064 (PIV1); assay: BLI, 53C stress
T10 construct: F113G, F114S, Q92C-G134C, A466I, S473I, A480L
Description: as §2, §1

PIV1056 = target: T11, PIV1056 (PIV1); assay: BLI, 53C stress
T11 construct: F113G, F114S, A466L, S473L, A480L, Q92A, G134A
Description: as §2, §1

PIV1054 [9] = target: T12, PIV1054 (PIV1); assay: BLI, 53C stress
T12 construct: A466L, S473L, A480L, G134A
Description: as §2, §1

PIV1057 [10] = target: T13, PIV1057 (PIV1); assay: BLI, 53C stress
T13 construct: A466L, S473L, A480L, Q92A, G134A
Description: as §2, §1

[11] = target: T2, PIV1 F literature prefusion comparison; assay: BLI, 53C stress
Description: as §2, §1

PIV1047 [12] = target: T14, PIV1047 (PIV1); assay: BLI, 53C stress
T14 construct: F113G, F114S, Q92C-G134C, A466L, S473L, A480L
Description: as §2, §1

PIV1049 [13] = target: T15, PIV1049 (PIV1); assay: BLI, 53C stress
T15 construct: Q92C-G134C, A466L, S473L
Description: as §2, §1

PIV1053 [14] = target: T16, PIV1053 (PIV1); assay: BLI, 53C stress
T16 construct: F113G, F114S, A466L, S473L, A480L, G134A
Description: as §2, §1

PIV1060 [15] = target: T17, PIV1060 (PIV1); assay: BLI, 53C stress
T17 construct: Q92L, G134A, A466L, S473L, A480L
Description: as §2, §1

PIV1065 [16] = target: T18, PIV1065 (PIV1); assay: BLI, 53C stress
T18 construct: F113G, F114S, Q92C-G134C, A466I, S473I
Description: as §2, §1

PIV1061 = target: T19, PIV1061 (PIV1); assay: BLI, 53C stress
T19 construct: Q92L, G134A, A466L, S473L
Description: as §2, §1

PIV1050 = target: T20, PIV1050 (PIV1); assay: BLI, 53C stress
T20 construct: F113G, F114S, Q92C-G134C, A466V, S473V, A480V
Description: as §2, §1

PIV1067 [17] = target: T21, PIV1067 (PIV1); assay: BLI, 53C stress
T21 construct: F113G, F114S, Q92C-G134C, A466I, S473I, A480I
Description: as §2, §1

PIV1063 [18] = target: T22, PIV1063 (PIV1); assay: BLI, 53C stress
T22 construct: A466L, S473L, A480L, Q92A, G134L
Description: as §2, §1

PIV1068 [19] = target: T4, PIV1068; assay: BLI, 56C stress
Description: as §2, §1

PIV1055 [20] = target: T5, PIV1055; assay: BLI, 56C stress
Description: as §2, §1

PIV1059 [21] = target: T6, PIV1059; assay: BLI, 56C stress
Description: as §2, §1

PIV1052 [22] = target: T7, PIV1052; assay: BLI, 56C stress
Description: as §2, §1

PIV1051 [23] = target: T8, PIV1051; assay: BLI, 56C stress
Description: as §2, §1

PIV1066 [24] = target: T9, PIV1066; assay: BLI, 56C stress
Description: as §2, §1

PIV1064 [25] = target: T10, PIV1064; assay: BLI, 56C stress
Description: as §2, §1

PIV1054 [26] = target: T12, PIV1054; assay: BLI, 56C stress
Description: as §2, §1

PIV1057 [27] = target: T13, PIV1057; assay: BLI, 56C stress
Description: as §2, §1

[28] = target: T2, PIV1 F literature prefusion comparison; assay: BLI, 56C stress
Description: as §2, §1

PIV1047 [29] = target: T14, PIV1047; assay: BLI, 56C stress
Description: as §2, §1

PIV1049 [30] = target: T15, PIV1049; assay: BLI, 56C stress
Description: as §2, §1

PIV1053 [31] = target: T16, PIV1053; assay: BLI, 56C stress
Description: as §2, §1

PIV1060 [32] = target: T17, PIV1060; assay: BLI, 56C stress
Description: as §2, §1

PIV1065 [33] = target: T18, PIV1065; assay: BLI, 56C stress
Description: as §2, §1

PIV1067 [34] = target: T21, PIV1067; assay: BLI, 56C stress
Description: as §2, §1

PIV1048 = target: T23, PIV1048 (PIV1); assay: BLI, 56C stress
T23 construct: Q92C-G134C, A466L, S473L, A480L
Description: as §2, §1

PIV1063 [35] = target: T22, PIV1063; assay: BLI, 56C stress
Description: as §2, §1

B1: PIV1-8 mAb (antibody, V domains shown)
VH: QVQLVQSGAEVKKPGSSVKVSCEASGGTFSNYVISWVRQAPGQGLEWMGGIIPVFATAKYAQKFQGRVTIIADQSTNTAYLELSSLRSDDTAVYFCASVDSGGTWWDAFAIWGQGTMVTVSS
VL: QAVVTQPRSVSGSPGQAVTISCTGTSSDVGGYNYVSWYQHHPGKAPKLIIYDVTKRPSGVPDRFSGSKSGNTASLTISGLQTEYEADYYCCSYAGSYTLVFGGGTKLTVLG
notes: human IgG1; also called hPIV1-8 mAb; hPIV1-8
Response Shift (PIV1070): 0.876 nm
Response Shift [1]: 0.769 nm
Response Shift (PIV1069): 0.857 nm
Response Shift (PIV1068 [2]): 0.65 nm
Response Shift (PIV1055 [3]): 0.787 nm
Response Shift (PIV1059 [4]): 0.903 nm
Response Shift (PIV1052 [5]): -0.026 nm
Response Shift (PIV1051 [6]): 0.744 nm
Response Shift (PIV1066 [7]): 0.722 nm
Response Shift (PIV1064 [8]): 0.897 nm
Response Shift (PIV1056): 0.805 nm
Response Shift (PIV1054 [9]): 0.826 nm
Response Shift (PIV1057 [10]): 0.808 nm
Response Shift [11]: 0.646 nm
Response Shift (PIV1047 [12]): 0.862 nm
Response Shift (PIV1049 [13]): 0.883 nm
Response Shift (PIV1053 [14]): 0.901 nm
Response Shift (PIV1060 [15]): 0.671 nm
Response Shift (PIV1065 [16]): 0.816 nm
Response Shift (PIV1061): 0.648 nm
Response Shift (PIV1050): 0.907 nm
Response Shift (PIV1067 [17]): 0.896 nm
Response Shift (PIV1063 [18]): -0.036 nm
Response Shift (PIV1068 [19]): 0.559 nm
Response Shift (PIV1055 [20]): 0.682 nm
Response Shift (PIV1059 [21]): 0.784 nm
Response Shift (PIV1052 [22]): -0.094 nm
Response Shift (PIV1051 [23]): 0.322 nm
Response Shift (PIV1066 [24]): 0.582 nm
Response Shift (PIV1064 [25]): 0.702 nm
Response Shift (PIV1054 [26]): 0.723 nm
Response Shift (PIV1057 [27]): 0.737 nm
Response Shift [28]: 0.119 nm
Response Shift (PIV1047 [29]): 0.754 nm
Response Shift (PIV1049 [30]): 0.294 nm
Response Shift (PIV1053 [31]): 0.776 nm
Response Shift (PIV1060 [32]): 0.597 nm
Response Shift (PIV1065 [33]): 0.677 nm
Response Shift (PIV1067 [34]): 0.728 nm
Response Shift (PIV1048): 0.71 nm
Response Shift (PIV1063 [35]): -0.069 nm
